Data: PMC7049810 (2020)

T1: PBP1A, purified (Escherichia coli, UniProt P02918 1-850, NT647 RED-NHS dye on amines (PBP1A was the labelled protein in all MST assays))
T1 chain: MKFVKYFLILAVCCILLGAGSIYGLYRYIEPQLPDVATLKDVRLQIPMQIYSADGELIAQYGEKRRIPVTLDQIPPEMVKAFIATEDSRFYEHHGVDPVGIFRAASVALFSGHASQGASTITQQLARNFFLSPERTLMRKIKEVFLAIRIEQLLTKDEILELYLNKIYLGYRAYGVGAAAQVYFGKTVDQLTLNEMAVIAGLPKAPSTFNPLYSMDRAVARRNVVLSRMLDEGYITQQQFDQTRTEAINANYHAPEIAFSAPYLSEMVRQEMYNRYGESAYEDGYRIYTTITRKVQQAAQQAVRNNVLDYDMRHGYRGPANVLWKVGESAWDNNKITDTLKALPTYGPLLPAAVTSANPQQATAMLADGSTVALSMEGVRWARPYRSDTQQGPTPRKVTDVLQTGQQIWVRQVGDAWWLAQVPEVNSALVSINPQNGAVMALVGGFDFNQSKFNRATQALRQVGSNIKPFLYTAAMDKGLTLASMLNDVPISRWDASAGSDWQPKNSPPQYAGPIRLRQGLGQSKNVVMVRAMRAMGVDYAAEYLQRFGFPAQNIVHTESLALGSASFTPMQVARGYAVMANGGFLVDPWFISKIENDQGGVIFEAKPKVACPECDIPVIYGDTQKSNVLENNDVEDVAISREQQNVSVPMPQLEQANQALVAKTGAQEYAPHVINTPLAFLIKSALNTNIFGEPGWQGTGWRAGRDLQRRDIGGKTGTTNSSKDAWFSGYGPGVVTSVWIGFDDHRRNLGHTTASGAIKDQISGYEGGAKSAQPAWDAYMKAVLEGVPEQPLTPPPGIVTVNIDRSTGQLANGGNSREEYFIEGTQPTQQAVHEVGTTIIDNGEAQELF

T2: PBP4, native, purified (Escherichia coli, UniProt P24228 21-477, where used as the labelled protein in MST: NT647 RED-NHS dye on amines)
T2 chain: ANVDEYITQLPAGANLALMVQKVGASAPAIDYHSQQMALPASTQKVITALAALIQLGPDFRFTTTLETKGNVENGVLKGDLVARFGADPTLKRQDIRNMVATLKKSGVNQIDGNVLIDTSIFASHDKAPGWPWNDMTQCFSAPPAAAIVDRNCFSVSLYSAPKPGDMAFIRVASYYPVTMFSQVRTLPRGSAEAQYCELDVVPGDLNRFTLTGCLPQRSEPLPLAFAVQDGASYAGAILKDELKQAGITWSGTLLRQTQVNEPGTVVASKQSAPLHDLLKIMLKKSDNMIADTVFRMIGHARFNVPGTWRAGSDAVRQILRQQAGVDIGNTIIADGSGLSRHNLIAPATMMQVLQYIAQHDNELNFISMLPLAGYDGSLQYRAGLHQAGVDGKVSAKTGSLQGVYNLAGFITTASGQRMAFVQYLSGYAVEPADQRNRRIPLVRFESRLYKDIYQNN

B1: MepM (enzyme)
chain: YHRDATPIVKTIELEQNEIRSLLPEASEPIDQAAQEDEAIPQDELDDKIAGEAGVHEYVVSTGDTLSSILNQYGIDMGDITQLAAADKELRNLKIGQQLSWTLTADGELQRLTWEVSRRETRTYDRTAANGFKMTSEMQQGEWVNNLLKGTVGGSFVASARNAGLTSAEVSAVIKAMQWQMDFRKLKKGDEFAVLMSREMLDGKREQSQLLGVRLRSEGKDYYAIRAEDGKFYDRNGTGLAKGFLRFPTAKQFRISSNFNPRRTNPVTGRVAPHRGVDFAMPQGTPVLSVGDGEVVVAKRSGAAGYYVAIRHGRSYTTRYMHLRKILVKPGQKVKRGDRIALSGNTGRSTGPHLHYEVWINQQAVNPLTAKLPRTEGLTGSDRREFLAQAKEIVPQLRFD
B2: MepS (enzyme)
chain: CSANNTAKNMHPETRAVGSETSSLQASQDEFENLVRNVDVKSRIMDQYADWKGVRYRLGGSTKKGIDCSGFVQRTFREQFGLELPRSTYEQQEMGKSVSRSNLRTGDLVLFRAGSTGRHVGIYIGNNQFVHASTSSGVIISSMNEPYWKKRYNEARRVLSRS
modifications: where used as fl-MepS in MST: NT647 RED-NHS dye on amines
B3: PBP7, purified (enzyme)
chain: KTAAATTASQPEIASGSAMIVDLNTNKVIYSNHPDLVRPIASISKLMTAMVVLDARLPLDEKLKVDISQTPEMKGVYSRVRLNSEISRKDMLLLALMSSENRAAASLAHHYPGGYKAFIKAMNAKAKSLGMNNTRFVEPTGLSVHNVSTARDLTKLLIASKQYPLIGQLSTTREDMATFSNPTYTLPFRNTNHLVYRDNWNIQLTKTGFTNAAGHCLVMRTVINNKPVALVVMDAFGKYTHFADASRLRTWIETGKVMPVPAAALSYKKQKAAQMAAAGQTAQND
modifications: where used as the labelled protein in MST: NT647 RED-NHS dye on amines

Legend:
Assay in all cases: MST
MepS = target: B2
PBP1A, purified = target: T1, PBP1A, purified
PBP4, native, purified = target: T2, PBP4, native, purified

Binder B1 has a Kd (MepS) of 1180 nM.

Binder B2 has a Kd (PBP1A, purified) of 91 nM.

For B3, the Kd (PBP4, native, purified) was 332 nM.
